The source of these data is patent US20160083464A1 (MEDICAL AND BIOLOGICAL LABORATORIES, published 2016).

For test [1], the target named is T1, human-derived transmembrane HB-EGF protein (wild type HB-EGF) (human, UniProt Q99075 20-208).
T1 construct: also called human HB-EGF protein; cell surface HB-EGF
The experiment in a line: flow cytometry with 293T culture supernatant as primary antibody (the FIG. 11 legend says ELISA). On the procedure: The reactivity of the 35-1 chimeric antibody or the 35-1 humanized antibody with HB-EGF was evaluated by the flow cytometry.
The antibody concentration in the culture supernatant was calculated according to a sandwich ELISA method. […] After the plate was washed with 0.05% Tween 20-PBS, an HRP-labeled goat anti-mouse IgG (manufactured by MBL Co., Ltd., code number: 330) having been diluted to 1/10000 was added as a detection antibody in an amount of 50 μL/well and left to stand at room temperature for 1 hour. After the plate was washed with 0.05% Tween 20-PBS, a color developing solution was added thereto in an amount of 50 μL/well and left to stand at room temperature for 20 minutes to develop a color. The color development was terminated by adding 1 M phosphoric acid in an amount of 50 μL/well. Then, the absorbance at 450 nm was measured with a plate reader. Regarding the antibody concentration in the culture supernatant, a standard curve was created based on measured values obtained by serially diluting the antibody solution of a known concentration, and the antibody concentration was calculated from the measured values of the culture supernatant.

The target of test [2] is T1, human-derived transmembrane HB-EGF …. The experiment in a line: flow cytometry on HB-EGF-expressing cells (summary of the selection).
A further test addresses mutant HB-EGF F115A (human, UniProt Q99075 20-208). The experiment in a line: flow cytometry on 293T cells transiently expressing the mutant, antibody 5 µg/mL. The procedure: (§1) First, prepared were cells expressing amino acid point mutant HB-EGF to be subjected to the flow cytometry. To be more specific, genes encoding mutant HB-EGF shown in Table 1 were prepared by site-directed mutagenesis using the HB-EGF-pQCxmhIPG as a template. The obtained mutant HB-EGF genes were each inserted into an animal cell expression vector pQCxmhIPG to prepare a vector encoding each mutant HB-EGF. […] Thus, cells expressing amino acid point mutant HB-EGF were prepared.
(§2) Next, each of the anti-HB-EGF antibodies (5 μg/mL) and a secondary antibody (manufactured by Beckman Coulter, Inc., catalog number: IM0855, this antibody was diluted to 1/200 for use)) were allowed to react with the cells expressing the wild type HB-EGF or each mutant HB-EGF, and the mean fluorescence intensity was analyzed by the flow cytometry. […] Then, based on the obtained mean fluorescence intensity (antibody reactivity), the binding strength (relative value) of each anti-HB-EGF antibody to each mutant HB-EGF was calculated according to the following formula (Formula *).
In general terms: In flow cytometry, cells or beads pass a laser one at a time.

A further test has as its target mutant HB-EGF I117A (human, UniProt Q99075 20-208). The description is as above. On the procedure:
as §1, §2

T1 sequence (Q99075 20-208): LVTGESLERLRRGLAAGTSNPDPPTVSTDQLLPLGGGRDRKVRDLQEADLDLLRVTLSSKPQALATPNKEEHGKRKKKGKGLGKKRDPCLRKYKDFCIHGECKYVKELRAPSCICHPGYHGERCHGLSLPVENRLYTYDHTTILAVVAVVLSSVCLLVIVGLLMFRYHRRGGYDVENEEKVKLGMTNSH
Sequence of mutant HB-EGF I117A (Q99075 20-208 I117A): as the sequence (Q99075 20-208) above, with I98A counted along it
Sequence of mutant HB-EGF F115A (Q99075 20-208 F115A): as the sequence (Q99075 20-208) above, with F96A counted along it

B1: 35-1 humanized antibody (antibody, V domains shown)
VH: QVQLVQSGAEVVKPGSSVKVSCKASGYSFSGYYMHWVKQAPGQGLEWIGEINPSTGGITYNQKFKAKATLTVDRSTSTAYMELKSLTSEDTAVYYCTRITWAFAYWGQGTTVTVSS
VL: QIVLTQSPTTMAASPGEKITITCSASSSVTYMYWYQQRPGFSPKLLIYDTSNLASGVPVRFSGSGSGTSYSLTIGTMEAEDVATYYCQQWSSYPPTFGGGTKLEIK
notes: CDR-grafted variable regions in a Lonza human IgG1 vector (human IgG1 constant region); also called humanized 35-1 antibody
On to B1, for which the binding result in test [1] is given as “binds”.

B2: 35-1 antibody (antibody, mouse IgG1, V domains shown)
VH: EVQLQQSGPELVKPRASVKISCKASGYSFSGYYMHWVKQSPEKSLEWIGEINPSTGGITYNQKFKAKATLTVDRSSSTAYMQLKSLTSEDSAVYYCTRITWAFAYWGQGTLVTVSA
VL: QIVLTQSPAIMSASPGEKVTMTCSASSSVTYMYWYQQKPGSSPRLLIYDTSNLASGVPVRFSGSGSGTSYSLTISRMEAEDAATYYCQQWSSYPPTFGGGTKLEIK
notes: Variable genes were amplified with mouse IgG1 CH1 and kappa constant region primers
With B2, the binding result (in test [2]; with mutant HB-EGF F115A; in the test with mutant HB-EGF I117A) was “binds” in each case.

B3: 292 antibody (antibody, mouse IgG1, V domains shown)
VH: EVQLQQSGPELVKPGASVKISCKASGYSFTGYYMHWVKQSPEKSLEWIGEINPSTGGTTYNQKFKAKATLTLDKSSSTAYMQLKSLTSEDSAVYYCAKSPYWDGAYWGQGTLVTVSA
VL: QIVLTQSPAIMSASPGEKVTMTCSASSSISYMYWYQQRPGSSPRLLIYDTSNLASGVPVRFSGSGSGTSHSLTISRMEAEDAATYYCQQWSSYPSTFGGGTKLEIK
notes: as for B2
With B3, the binding result (in test [2]; with mutant HB-EGF F115A; in the test with mutant HB-EGF I117A) was “binds” throughout.

B4: 35-1 chimeric antibody (antibody, V domains shown)
VH: EVQLQQSGPELVKPRASVKISCKASGYSFSGYYMHWVKQSPEKSLEWIGEINPSTGGITYNQKFKAKATLTVDRSSSTAYMQLKSLTSEDSAVYYCTRITWAFAYWGQGTLVTVSA
VL: QIVLTQSPAIMSASPGEKVTMTCSASSSVTYMYWYQQKPGSSPRLLIYDTSNLASGVPVRFSGSGSGTSYSLTISRMEAEDAATYYCQQWSSYPPTFGGGTKLEIK
notes: Variable regions of the 35-1 antibody in Lonza human IgG1 antibody producing vectors (human IgG1 constant region); also called chimerized 35-1 antibody
Regarding B4, the binding result in test [1] is reported as “binds”.
